Measurements reported in patent US20250296984A1, “THERAPEUTIC AND DIAGNOSTIC AGENTS AND USES THEREOF” (priority 2022, published 2025).

B1: US28-13-5G6-1D3: monoclonal antibody against ECD3 of HCMV US28; VH SEQ ID NO: 12, VL SEQ ID NO: 18; rAb is the recombinant product (antibody, V domains shown)
VH: EVKLVESGGGLVQPGGSLRLACATSGFTFTDYYMSWVRQPPGKALEWLGFIRSKANGYTTEYSASVKGRFTISRDNSQSILYLQMNTLRSEDSATYYCARDERRTAWLAYWGQGTLVTVSA
VL: DVLMTQTPLSLPVSLGDQASISCRSSQSIVHSNGNTYLDWYLQKPGQSPKLLIYKVSNRFSGVPDRFSGSGSGTDFTLKISRVEAEDLGVYYCFQGSHVPTWTFGGGTKLEIK
modifications: Mature form of VH sequence of 1D3, without the leader sequence; Mature form of VL sequence of 1D3, without the leader sequence
notes: monoclonal antibody against ECD3 of HCMV US28; rAb is the recombinant product
B2: 13-5G6-1D3: mouse monoclonal IgG1 kappa antibody against US28 ECD3; VH SEQ ID NO: 12, VL SEQ ID NO: 18 (antibody, V domains shown)
VH: EVKLVESGGGLVQPGGSLRLACATSGFTFTDYYMSWVRQPPGKALEWLGFIRSKANGYTTEYSASVKGRFTISRDNSQSILYLQMNTLRSEDSATYYCARDERRTAWLAYWGQGTLVTVSA
VL: DVLMTQTPLSLPVSLGDQASISCRSSQSIVHSNGNTYLDWYLQKPGQSPKLLIYKVSNRFSGVPDRFSGSGSGTDFTLKISRVEAEDLGVYYCFQGSHVPTWTFGGGTKLEIK
modifications: Mature form of VH sequence of 1D3, without the leader sequence; Mature form of VL sequence of 1D3, without the leader sequence

Tests used:
[1] = test system: human cancer tissues and adjacent normal tissues; test: Immunohistochemistry (IHC) on human cancer tissue micro-arrays
Procedure: Cytomegalovirus (CMV) control slides containing CMV positive lung tissue and CMV negative myometrium (product number #3240A) were obtained from Newcomer Supply Inc., Middleton, WI 53562-2579, USA. Tissue micro-arrays (TMAs) were obtained from US Biomax Inc., Derwood, MD 20855, USA, and included tumor tissues #BR1008b, #BS17016c, #BCN721b and normal tissues #FDA662a and heart tissues #HEN241a.
The paraffin sections were sequentially immersed into a. 100% xylene three times (5 min each); b. 100% ethanol twice (2 min each); c. 95% ethanol twice (2 min each). The slides were rinsed twice in water for 5 min to remove ethanol. […], the slides were immersed in 3% H2O2 for 5 minutes and washed thereafter twice (2×) with distilled water. The slides were then immersed in the working citrate buffer (pH 6.0) and covered with a lid. The buffer was heated in the microwave until it had boiled, and then kept in the steamer for 15 min.
The sections were cooled at room temperature for 30 min and washed with PBS. 5% BSA blocking solution was then added to the HIER treated samples and they were incubated at 37° C. for 30 min. The primary antibody was diluted according to the best results from the dilution gradient tests and added to the samples for incubation overnight at 4° C. or 37° C. for 1 h. The slides were then washed three times in PBS on the shaker. The secondary antibodies were used in 1:200 dilution, added to the samples and incubated at 37° C. for 30 min. The slides were washed three times (5 min each) in PBS on the shaker. Strept-Avidin Biotin Complex (SABC) HRP- or AP-conjugated reagents were added, and the samples were incubated in dark at room temperature. The samples were thereafter washed in distilled water, counter stained by hematoxylin, and then dehydrated through gradient ethanol from 70% to 100%, and cleared by 3 times in xylene, 5 min each. Slides were mounted by ACRYMOUNT (StatLab, MicKinney, TX 75069, USA) and cover-slipped. Digitized pictures were taken by Olympus VS120 scanner and analyzed by using OlyVia 3.2 software (Olympus Corporation, 20101 Tokyo, Japan) by senior Pathologist.
We thereafter studied the binding of US28-13-5G6-1D3 rAb to human cancer tissues by using IHC and confirmatory ISH analyses. The results were evaluated by a Senior Pathologist. We found specific staining of the US28-13-5G6-1D3 rAb on several cancer types. Among these were glioblastomas (e.g. glioblastoma grade 4), colonic cancer, rectum cancer, breast cancer (e.g. locally advanced breast cancer and its metastasis), oesophagus cancer, gastric/stomach cancer, pancreas cancer, liver cancer such as hepatocellular carcinoma, lung cancer, malignant pheochromocytoma and cervical cancer, showing for the first time a potential universal role of US28 in pathology of cancer. The staining intensity of different cancer cells were classified as negative=0, weakly positive=1+, moderately positive=2+ or strongly positive=3+. […] In the majority of tumors with a positive US28-13-5G6-1D3 rAb staining, the staining was generally positive in large parts of the tumor cells. The tumor positivity was confirmed by positive finding of HCMV DNA in nucleus of the tumor cells by using ISH. […] The IgG control Ab staining was used as negative control and was negative in all of the studied cancerous and normal tissues.

[2] = molecular target: T1, US28 of HCMV strain TB40/E on CHO cells (Human cytomegalovirus, UniProt P69332, A8T/D15E/E18L/V24T); test: FACS binding to CHO cells expressing TB40/E form of US28; details: FIG. 21C
T1 construct: expressed in transfected cells; host or cells: CHO cells
Text: The plasmids carrying the DNA for the TB40/E, VHL/E, and Merlin constructs and mutated US28 strain (SEQ ID Nos: 254, 272, 273 and 255, respectively) were also manufactured in the similar manner.
Flowcytometry was used to analyze cell surface binding by the US28 antibodies. Upon cell harvest, adherent non-infected and US28 overexpressing or HCMV infected cells were washed three times with cell staining buffer (phosphate-buffered saline (PBS (Amresco, Cleveland, 44139, USA) added 0.5% BSA and 0.05% Sodium Azide (NaN3)). The cells were trypisinized and then resuspended in DMEM with 10% FBS to inhibit the action of trypsin. The cells were then pelleted at 400×g for 10 minutes and washed three times in cell staining buffer. Cell viability and cell concentration were measured by tryphan blue viability assay and a cell counter (Countess, Invitrogen, Carlsbad, CA 92008, USA). The cell suspension was adjusted to 1×10^6 cells/mL with ice-cold cell staining buffer. The cells were blocked in 1 ml 10% FBS or 1% BSA in PBS per 1×10^6 cells, vortexed briefly, and incubated for 10-30 minutes to eliminate non-specific staining. The cells were then stained with the respective antibodies and appropriate negative controls. […]

Molecule | staining of metastases ([1]; All TNBC (n=8) and HER2 positive (n=11) metastases) | samples positive for staining ([1]; Hepatocellular carcinomas) | samples positive for staining ([1]; cervix cancer samples) | controls negative for staining ([1]; epithelial cells adjacent to colon adenocarcinoma) | samples positive for staining ([1]; lung cancer samples) | samples positive for staining ([1]; pancreas cancer samples) | number of samples with positive staining ([1]; rectum adenocarcinoma, 3 studied) | IHC staining ([1]; human malignant pheochromocytoma tumor (HCMV positive control), FIG. 19 B) | adjacent control breast tissues with no cytoplasmic staining ([1]; normal breast epithelial cells) | % change in absolute levels of binding between DB and TB40/E forms of US28 [2]
B1 | positive | 2/3 | 2/3 | 3/3 | 2/3 | 1/3 | 3 | – | – | –
B2 | – | – | – | – | – | – | – | positive staining | 10/10 | less than 10%
